Reference: US20200079833A1 (AstraZeneca / MedImmune, published 2020)
Starred links: 1 amine or outer side, 2 acyl side, 3 side chain; linkers in the order of their positions; H or OH if unused. Non-standard residues stand in square brackets, D forms with d. Groups on a side chain read outwards from the residue. Primed or numbered codes have the meaning given here. No end group written: not given here. *: point of attachment. γGlu = O=C(O)[C@H](CCC(=O)[*:2])N[*:1]; Stearoyl = CCCCCCCCCCCCCCCCCC(=O)*; αMeF = C[C@](N)(Cc1ccccc1)C(=O)O; αMeK = C[C@](N)(CCCCN)C(=O)O; αMeS = C[C@](N)(CO)C(=O)O; PEG2′ = not defined here; Aib = CC(C)(N)C(=O)O

T1: glucose-dependent insulinotropic peptide (gastric inhibitory polypeptide) receptor (human, UniProt P48546 22-466)
T1 sequence (looked up): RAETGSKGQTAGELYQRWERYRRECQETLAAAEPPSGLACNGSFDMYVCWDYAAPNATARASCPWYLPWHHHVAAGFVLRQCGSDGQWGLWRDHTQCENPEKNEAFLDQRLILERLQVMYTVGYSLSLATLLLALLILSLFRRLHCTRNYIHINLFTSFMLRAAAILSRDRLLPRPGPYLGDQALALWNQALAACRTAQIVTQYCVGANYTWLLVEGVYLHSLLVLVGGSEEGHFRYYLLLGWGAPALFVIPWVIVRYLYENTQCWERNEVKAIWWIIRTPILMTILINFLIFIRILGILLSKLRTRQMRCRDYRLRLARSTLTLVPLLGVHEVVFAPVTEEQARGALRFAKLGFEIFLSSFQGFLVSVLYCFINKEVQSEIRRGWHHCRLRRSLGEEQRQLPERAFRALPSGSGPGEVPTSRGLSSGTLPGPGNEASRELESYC


Legend:
Test in all cases: cell-based or functional assay
GLP-1 receptor = GLP-1 receptor (human, UniProt P43220 24-463)
[1] = biological target: T1, glucose-dependent insulinotropic …
glucagon receptor = glucagon receptor (human, UniProt P47871 26-477)
Chain of glucagon receptor (P47871 26-477): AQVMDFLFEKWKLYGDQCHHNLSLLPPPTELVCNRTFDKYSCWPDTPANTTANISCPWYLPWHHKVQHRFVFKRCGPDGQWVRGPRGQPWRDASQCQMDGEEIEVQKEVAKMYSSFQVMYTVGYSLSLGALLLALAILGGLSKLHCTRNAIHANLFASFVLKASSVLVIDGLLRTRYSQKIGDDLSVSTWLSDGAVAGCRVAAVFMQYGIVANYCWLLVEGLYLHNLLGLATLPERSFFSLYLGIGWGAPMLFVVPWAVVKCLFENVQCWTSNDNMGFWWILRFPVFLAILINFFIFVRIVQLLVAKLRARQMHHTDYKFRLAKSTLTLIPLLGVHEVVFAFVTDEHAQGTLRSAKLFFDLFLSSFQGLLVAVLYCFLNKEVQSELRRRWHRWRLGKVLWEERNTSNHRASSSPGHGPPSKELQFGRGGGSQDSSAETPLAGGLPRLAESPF

Primary assay EC50 (cAMP), Mean pM GLP-1R (GLP-1 receptor) | Primary assay EC50 (cAMP), n1 (GLP-1 receptor) | Primary assay EC50 (cAMP), n2 (GLP-1 receptor) | Primary assay EC50 (cAMP), n1 [1] | Primary assay EC50 (cAMP), n2 [1] | Primary assay EC50 (cAMP), n1 (glucagon receptor) | Primary assay EC50 (cAMP), n2 (glucagon receptor) | Binder
0.9 pM | 0.00079 nM | 0.00093 nM | 26 nM | 26 nM | 26 nM | 26 nM | H[Aib]EGS[αMeF]TSDV[αMeS]S[αMeF]LEGEAAK([PEG2′-PEG2′-PEG2′-Stearoyl])EFIA[αMeF]VV[αMeK]GG-NH2 [SEQ ID NO 54]
0.9 pM | 0.00083 nM | 0.0009 nM | 26 nM | 26 nM | 26 nM | 26 nM | H[Aib]EGS[αMeF]TSDV[αMeS]SYLEGEAAK([PEG2′-PEG2′-PEG2′-Stearoyl])E[αMeF]IA[αMeF]VV[αMeK]GG-NH2 [SEQ ID NO 53]
3.2 pM | 0.0029 nM | 0.0035 nM | 26 nM | 26 nM | 26 nM | 26 nM | H[Aib]EGS[αMeF]TSDV[αMeS]S[αMeF]LEGEAAK([PEG2′-PEG2′-PEG2′-Stearoyl])E[αMeF]IA[αMeF]VVKGG-NH2 [SEQ ID NO 56]
2 pM | 0.0015 nM | 0.0025 nM | 26 nM | 26 nM | 26 nM | 26 nM | H[Aib]EGS[αMeF]TSDVSS[αMeF]LEGEAAK([PEG2′-PEG2′-PEG2′-Stearoyl])E[αMeF]IA[αMeF]VV[αMeK]GG-NH2 [SEQ ID NO 52]
1.8 pM | 0.0014 nM | 0.0023 nM | 25 nM | 25 nM | 25 nM | 25 nM | H[Aib]EGS[αMeF]TSDV[αMeS]S[αMeF]LEGEAAK([PEG2′-PEG2′-PEG2′-Stearoyl])E[αMeF]IAWVV[αMeK]GG-NH2 [SEQ ID NO 55]

The remaining lines, values behind:

Binder | Primary assay EC50 (cAMP), Mean pM GLP-1R (GLP-1 receptor) | Primary assay EC50 (cAMP), n1 (GLP-1 receptor) | Primary assay EC50 (cAMP), n2 (GLP-1 receptor) | Primary assay EC50 (cAMP), n1 [1] | Primary assay EC50 (cAMP), n2 [1] | Primary assay EC50 (cAMP), n1 (glucagon receptor) | Primary assay EC50 (cAMP), n2 (glucagon receptor)
H[Aib]EGS[αMeF]TSEVSS[αMeF]LEGEAA[αMeK]E[αMeF]IA[αMeF]VV[αMeK]GG-NH2 (N-terminus assumed; SMILES CC[C@H](C)[C@H](NC(=O)[C@](C)(Cc1ccccc1)NC(=O)[C@H](CCC(=O)O)NC(=O)[C@](C)(CCCCN)NC(=O)[C@H](C)NC(=O)[C@H](C)NC(=O)[C@H](CCC(=O)O)NC(=O)CNC(=O)[C@H](CCC(=O)O)NC(=O)[C@H](CC(C)C)NC(=O)[C@](C)(Cc1ccccc1)NC(=O)[C@H](CO)NC(=O)[C@H](CO)NC(=O)[C@@H](NC(=O)[C@H](CCC(=O)O)NC(=O)[C@H](CO)NC(=O)[C@@H](NC(=O)[C@](C)(Cc1ccccc1)NC(=O)[C@H](CO)NC(=O)CNC(=O)[C@H](CCC(=O)O)NC(=O)C(C)(C)NC(=O)[C@@H](N)Cc1c[nH]cn1)[C@@H](C)O)C(C)C)C(=O)N[C@@H](C)C(=O)N[C@@](C)(Cc1ccccc1)C(=O)N[C@H](C(=O)N[C@H](C(=O)N[C@@](C)(CCCCN)C(=O)NCC(=O)NCC(N)=O)C(C)C)C(C)C) [SEQ ID NO 7] | 389 pM | 0.35 nM | 0.43 nM | 100 nM | 100 nM | 100 nM | 100 nM
H[Aib]EGSFTSDV[αMeS]S[αMeF]LEGEAAK([PEG2′-PEG2′-PEG2′-Stearoyl])E[αMeF]IA[αMeF]VV[αMeK]GG-NH2 [SEQ ID NO 51] | 2.1 pM | 0.0017 nM | 0.0024 nM | 26 nM | 26 nM | 26 nM | 26 nM
H[Aib]EGS[αMeF]TSDV[αMeS]S[αMeF]LEGEAAK([PEG2′-PEG2′-γGlu-Stearoyl])E[αMeF]IAWVV[αMeK]GG-NH2 [SEQ ID NO 49] | 124 pM | 0.096 nM | 0.15 nM | 25 nM | 25 nM | 25 nM | 25 nM
H[Aib]EGS[αMeF]TSDV[αMeS]S[αMeF]LEGEAAK([PEG2′-PEG2′-γGlu-Stearoyl])E[αMeF]IA[αMeF]VVKGG-NH2 [SEQ ID NO 50] | 216 pM | 0.17 nM | 0.26 nM | 26 nM | 26 nM | 26 nM | 26 nM
H[Aib]EGS[αMeF]TSDV[αMeS]S[αMeF]LEGEAAK([PEG2′-PEG2′-γGlu-Stearoyl])EFIA[αMeF]VV[αMeK]GG-NH2 [SEQ ID NO 48] | 6.1 pM | 0.0039 nM | 0.0082 nM | 26 nM | 26 nM | 26 nM | 26 nM
H[Aib]EGS[αMeF]TSDVSS[αMeF]LEGEAAK([PEG2′-PEG2′-γGlu-Stearoyl])E[αMeF]IA[αMeF]VV[αMeK]GG-NH2 [SEQ ID NO 46] | 1560 pM | 0.92 nM | 2.2 nM | 26 nM | 26 nM | 26 nM | 26 nM
H[Aib]EGS[αMeF]SSDVSS[αMeF]LEGEAA[αMeK]E[αMeF]IA[αMeF]VV[αMeK]GG-NH2 (N-terminus assumed; SMILES CC[C@H](C)[C@H](NC(=O)[C@](C)(Cc1ccccc1)NC(=O)[C@H](CCC(=O)O)NC(=O)[C@](C)(CCCCN)NC(=O)[C@H](C)NC(=O)[C@H](C)NC(=O)[C@H](CCC(=O)O)NC(=O)CNC(=O)[C@H](CCC(=O)O)NC(=O)[C@H](CC(C)C)NC(=O)[C@](C)(Cc1ccccc1)NC(=O)[C@H](CO)NC(=O)[C@H](CO)NC(=O)[C@@H](NC(=O)[C@H](CC(=O)O)NC(=O)[C@H](CO)NC(=O)[C@H](CO)NC(=O)[C@](C)(Cc1ccccc1)NC(=O)[C@H](CO)NC(=O)CNC(=O)[C@H](CCC(=O)O)NC(=O)C(C)(C)NC(=O)[C@@H](N)Cc1c[nH]cn1)C(C)C)C(=O)N[C@@H](C)C(=O)N[C@@](C)(Cc1ccccc1)C(=O)N[C@H](C(=O)N[C@H](C(=O)N[C@@](C)(CCCCN)C(=O)NCC(=O)NCC(N)=O)C(C)C)C(C)C) [SEQ ID NO 8] | 88 pM | 0.071 nM | 0.11 nM | 23 nM | 23 nM | 7.8 nM | 12 nM
H[Aib]EGS[αMeF]TSDV[αMeS]SYLEGEAAK([PEG2′-PEG2′-γGlu-Stearoyl])E[αMeF]IA[αMeF]VV[αMeK]GG-NH2 [SEQ ID NO 47] | 43.3 pM | 0.037 nM | 0.05 nM | 25 nM | 25 nM | 25 nM | 25 nM
